Molecular target: the molecule itself
Assay: cross-linking

B1: AcpA-His (natural protein)
chain: MEKDISRKIDLLNILIEEKRWFTLFELEKNLNCSSKTIRKDISIINDLLPKTIFIHSKKGKGVKLSLPQNQSISEAISNLLKKSLTFLAIQQLLEERSNTVTSLADKLYLPISSTNIVLKRVSKYIKKFGLSLEKKPLRIVGDEFQIILMFSERYLESYPDTEWPFTEYKEEMLIDYINYIEEKLEIVFYSNDKRRMAFIMTILFKRIKQGHKVKFSEWIIKETMESIYYKKIFEGKNVIKVNKNRSLNIEEQVLLVIMVKLSRYVSKDENNLKQEELVLYKEGESTTYTYVKNFISILEQELKIDLNNNEEFVYGMIEYCREAFHILKFIPILKAPEKDTCKYIKKHYEETFYLVKRAYNKWGAEMKLTDIPDEEIAKVTMRIVAIGKQHNINRKKVLLITGEGKSWEEYMKSRINKRYGDQLKFVGGHAKILNGNTDNIDNIDIDFIITTVPLNFSWKSIVYVSPILQERDFYEIGIFASK
stoichiometry N: 2

Source: paper PMC6167206 (Molecular microbiology, 2018)
